Assay results published in paper PMC11840924, “Identifying Allosteric Hotspots in Mycobacterium tuberculosis cAMP Receptor Protein through Structural Homology” (Biochemistry, 2025).

Tests used:
[1] = biological target: T1, cAMP receptor protein from Mycobacterium tuberculosis (CRPMTB), wildtype (Mycobacterium tuberculosis), P9WMH3; assay: fluorescence polarisation; fluorescence anisotropy; CRPMTB titrated into 3 nM fluorescein-labelled 32-bp serC promoter DNA (full site); 75 mM KCl, 50 mM HEPES, 1 mM EDTA, pH 7.6; 1 mM cAMP; second transition read as high-order oligomers on DNA; apparent; details: remark: other sources report otherwise
T1 chain: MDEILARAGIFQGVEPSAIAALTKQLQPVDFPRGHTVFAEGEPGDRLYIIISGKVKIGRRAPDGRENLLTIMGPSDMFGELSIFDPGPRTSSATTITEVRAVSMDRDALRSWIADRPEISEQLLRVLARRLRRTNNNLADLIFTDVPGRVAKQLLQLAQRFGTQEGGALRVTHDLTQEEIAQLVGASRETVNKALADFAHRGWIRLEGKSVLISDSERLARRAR

[2] = biological target: T1, cAMP receptor protein from …; assay: fluorescence polarisation; fluorescence anisotropy, stoichiometric titration; CRPMTB titrated into 200 nM fluorescein-labelled 32-bp serC promoter DNA; 75 mM KCl, 50 mM HEPES, 1 mM EDTA, pH 7.6; 0 mM cAMP; details: remark: other sources report otherwise
[3] = biological target: T1, cAMP receptor protein from …; assay: fluorescence polarisation; fluorescence anisotropy; CRPMTB titrated into 3 nM fluorescein-labelled 32-bp serC promoter DNA (full site); 75 mM KCl, 50 mM HEPES, 1 mM EDTA, pH 7.6; 0 mM cAMP; second transition ([CRP] > 100 nM) read as free CRPMTB joining the specific CRPMTB-DNA complex (high-order oligomers on DNA); apparent; details: remark: other sources report otherwise
[4] = biological target: T1, cAMP receptor protein from …; assay: SEC; details: remark: other sources report otherwise
SEC = biological target: the molecule itself; assay: SEC
CRPMTB A61I [5] = biological target: T2, CRPMTB A61I (Mycobacterium tuberculosis, UniProt P9WMH3 1-224, A61I); assay: fluorescence anisotropy; no cAMP; 75 mM KCl, 50 mM HEPES, 1 mM EDTA, pH 7.6; […]; temperature not stated; details: protein: recombinant; tags: His-tag (pET-3a); chain copies: 2; label: fluorescein; blunt
T2 sequence: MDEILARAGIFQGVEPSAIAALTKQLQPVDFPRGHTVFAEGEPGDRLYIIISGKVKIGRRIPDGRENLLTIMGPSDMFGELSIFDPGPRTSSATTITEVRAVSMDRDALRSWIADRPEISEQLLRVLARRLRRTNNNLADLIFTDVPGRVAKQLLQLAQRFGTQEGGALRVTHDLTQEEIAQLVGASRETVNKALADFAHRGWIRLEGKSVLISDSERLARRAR

CRPMTB D63H [6] = biological target: T3, CRPMTB D63H (Mycobacterium tuberculosis, UniProt P9WMH3 1-224, D63H); assay: as above; details: protein: recombinant; tags: His-tag (pET-3a); chain copies: 2; label: fluorescein; blunt
T3 sequence: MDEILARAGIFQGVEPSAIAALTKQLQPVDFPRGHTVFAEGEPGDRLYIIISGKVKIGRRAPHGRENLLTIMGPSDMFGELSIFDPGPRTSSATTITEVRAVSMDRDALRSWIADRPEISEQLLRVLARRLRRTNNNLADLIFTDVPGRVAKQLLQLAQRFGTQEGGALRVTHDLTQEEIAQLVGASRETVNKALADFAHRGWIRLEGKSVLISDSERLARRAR

CRPMTB T70F [7] = biological target: T4, CRPMTB T70F (Mycobacterium tuberculosis, UniProt P9WMH3 1-224, T70F); assay: as above; details: protein: recombinant; tags: His-tag (pET-3a); chain copies: 2; label: fluorescein; blunt
T4 sequence: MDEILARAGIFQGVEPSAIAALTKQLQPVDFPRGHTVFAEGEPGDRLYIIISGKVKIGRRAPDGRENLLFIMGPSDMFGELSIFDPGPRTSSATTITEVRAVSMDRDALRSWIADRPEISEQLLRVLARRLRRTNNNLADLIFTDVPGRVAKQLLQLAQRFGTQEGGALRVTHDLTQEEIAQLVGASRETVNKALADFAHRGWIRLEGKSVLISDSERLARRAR

CRPMTB A61H [8] = biological target: T5, CRPMTB A61H (Mycobacterium tuberculosis, UniProt P9WMH3 1-224, A61H); assay: as above; details: protein: recombinant; tags: His-tag (pET-3a); chain copies: 2; label: fluorescein; blunt
T5 sequence: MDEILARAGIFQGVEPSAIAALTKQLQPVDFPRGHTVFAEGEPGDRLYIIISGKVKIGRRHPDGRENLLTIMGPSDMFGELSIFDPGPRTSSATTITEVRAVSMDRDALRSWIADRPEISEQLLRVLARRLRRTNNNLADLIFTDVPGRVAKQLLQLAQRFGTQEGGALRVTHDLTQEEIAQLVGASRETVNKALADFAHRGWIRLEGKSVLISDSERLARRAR

CRPMTB A61I [9] = biological target: T2, CRPMTB A61I; assay: fluorescence anisotropy; 1 mM cAMP; 75 mM KCl, 50 mM HEPES, 1 mM EDTA, pH 7.6; […]; temperature not stated; details: protein: recombinant; tags: His-tag (pET-3a); chain copies: 2; label: fluorescein; blunt
CRPMTB D63H [10] = biological target: T3, CRPMTB D63H; assay: as above; details: protein: recombinant; tags: His-tag (pET-3a); chain copies: 2; label: fluorescein; blunt
CRPMTB T70F [11] = biological target: T4, CRPMTB T70F; assay: as above; details: protein: recombinant; tags: His-tag (pET-3a); chain copies: 2; label: fluorescein; blunt
CRPMTB A61H [12] = biological target: T5, CRPMTB A61H; assay: as above; details: protein: recombinant; tags: His-tag (pET-3a); chain copies: 2; label: fluorescein; blunt

B1: cAMP receptor protein from Mycobacterium tuberculosis (CRPMTB), wildtype, P9WMH3 (natural protein)
chain: MDEILARAGIFQGVEPSAIAALTKQLQPVDFPRGHTVFAEGEPGDRLYIIISGKVKIGRRAPDGRENLLTIMGPSDMFGELSIFDPGPRTSSATTITEVRAVSMDRDALRSWIADRPEISEQLLRVLARRLRRTNNNLADLIFTDVPGRVAKQLLQLAQRFGTQEGGALRVTHDLTQEEIAQLVGASRETVNKALADFAHRGWIRLEGKSVLISDSERLARRAR
Work on B1 yielded an apparent K (1/[CRP]) at the boundary of oligomer formation on DNA [1] of 6e+06 M⁻¹, a stoichiometry N [2] of over 4 and an apparent K (1/[CRP]) at the boundary of oligomer formation on DNA [3] of 1.5e+07 M⁻¹. It also gave a stoichiometry N [4] of 2.

B2: CRPMTB A61H (natural protein)
chain: MDEILARAGIFQGVEPSAIAALTKQLQPVDFPRGHTVFAEGEPGDRLYIIISGKVKIGRRHPDGRENLLTIMGPSDMFGELSIFDPGPRTSSATTITEVRAVSMDRDALRSWIADRPEISEQLLRVLARRLRRTNNNLADLIFTDVPGRVAKQLLQLAQRFGTQEGGALRVTHDLTQEEIAQLVGASRETVNKALADFAHRGWIRLEGKSVLISDSERLARRAR
With B2 the “stoichiometry N” value (SEC) was 2.

B3: CRPMTB T70F (natural protein)
chain: MDEILARAGIFQGVEPSAIAALTKQLQPVDFPRGHTVFAEGEPGDRLYIIISGKVKIGRRAPDGRENLLFIMGPSDMFGELSIFDPGPRTSSATTITEVRAVSMDRDALRSWIADRPEISEQLLRVLARRLRRTNNNLADLIFTDVPGRVAKQLLQLAQRFGTQEGGALRVTHDLTQEEIAQLVGASRETVNKALADFAHRGWIRLEGKSVLISDSERLARRAR
For B3, the “stoichiometry N” value (SEC) was 2.

B4: CRPMTB A61I (natural protein)
chain: MDEILARAGIFQGVEPSAIAALTKQLQPVDFPRGHTVFAEGEPGDRLYIIISGKVKIGRRIPDGRENLLTIMGPSDMFGELSIFDPGPRTSSATTITEVRAVSMDRDALRSWIADRPEISEQLLRVLARRLRRTNNNLADLIFTDVPGRVAKQLLQLAQRFGTQEGGALRVTHDLTQEEIAQLVGASRETVNKALADFAHRGWIRLEGKSVLISDSERLARRAR
With B4 the “stoichiometry N” value (SEC) was 2.

B5: CRPMTB D63H (natural protein)
chain: MDEILARAGIFQGVEPSAIAALTKQLQPVDFPRGHTVFAEGEPGDRLYIIISGKVKIGRRAPHGRENLLTIMGPSDMFGELSIFDPGPRTSSATTITEVRAVSMDRDALRSWIADRPEISEQLLRVLARRLRRTNNNLADLIFTDVPGRVAKQLLQLAQRFGTQEGGALRVTHDLTQEEIAQLVGASRETVNKALADFAHRGWIRLEGKSVLISDSERLARRAR
In the case of B5, the “stoichiometry N” value (SEC) is reported as 2.

B6: serC32 full-site promoter (dsDNA)
DNA 1: GCGCGTAGTGTGAACAAGCTCACATGCAAGCC
DNA 2: GGCTTGCATGTGAGCTTGTTCACACTACGCGC
With B6 the Ka (CRPMTB A61I [5]) was 2.71 ± 0.02 10^8 M-1, the Ka (CRPMTB D63H [6]) was 4.53 ± 0.04 10^8 M-1 and the Ka (CRPMTB T70F [7]) was 4.42 ± 0.04 10^8 M-1. The Ka (CRPMTB A61H [8]) was 4.03 ± 0.08 10^8 M-1, the Ka (CRPMTB A61I [9]) was 3.57 ± 0.03 10^8 M-1 and the Ka (CRPMTB D63H [10]) was 4.66 ± 0.06 10^8 M-1. For the same binder, the Ka (CRPMTB T70F [11]) was 2.75 ± 0.02 10^8 M-1 and the Ka (CRPMTB A61H [12]) was 2.95 ± 0.05 10^8 M-1.
